{"source": "patent US6815187", "tested_on": "syndecan-4 cytoplasmic tail peptide with a phosphorylated Ser (S4c-P)", "data": [{"substance": "Recombinant PKCα", "values": [{"measurement": "phosphorylation level of the PKCβ1 optimal substrate peptide by PKCα, in the presence of PIP2", "value": "the phosphorylation level of the substrate was similar to that obtained with PIP2 alone"}]}]}
